Measured values reported in the supplement of paper PMC12042874.
± gives the uncertainty stated by the source.

Experiment: amyloid nucleation score (Sup35N fusion, yeast selection) (log enrichment); library NNK2; higher = more nucleation; inactive = no reads after selection
Method in brief: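 Nucleation score is defined as the DiMSum log enrichment of output over input reads, with centring on the mode score of non-aggregating sequences. A minimum of 100 input reads was required for each sequence. Reads came from Illumina sequencing of plasmid inserts from psi-negative yeast expressing Sup35N fused to peptides of 20 random codons, induced with 100 μM copper sulfate for 24 hours and grown 7 days at 30°C on medium lacking adenine and uracil.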

| Substance | amyloid nucleation score |
| --- | --- |
| GILGQGDYYLRN | -0.422 ± 1 |
| GIMQCFGSMRMQWCNSDKEC | 5.021 ± 0.037 |
| GIPVMPTDSRGTPGVMVFEY | -1.25 ± 1 |
| GISVLRQTVFDLSIFIPHTS | 4.42 ± 0.055 |
| GIVRGYMLSHLFV | 0.262 ± 0.25 |
| GKFCIFASMADLMEW | -0.491 ± 0.42 |
| GKGDVGESRADCLAYSRRMS | 0.868 ± 0.45 |
| GKGWKSVVYSNMGRVSGCCK | 2.81 ± 0.12 |
| GKINITAFAWLKAFADRHWI | 0.705 ± 0.8 |
| GKMGYFEWGVLDYIVRLSGT | 0.851 ± 0.27 |
| GKRFNFVTCPPVLRR | -0.088 ± 0.34 |
| GKSYVYIRLGIFSMWASHRR | 2.72 ± 0.08 |
| GKYMEDYNAENQNPSTMMES | -0.01 ± 0.47 |
| GLCKFKQVCTNSVGNYVGYF | -2.18 ± 0.62 |
| GLCMYGVTAKRMLVVWRERG | 8.804 ± 0.046 |
| GLDPRCNNTPVTLYVLSPWV | -0.588 ± 1.1 |
| GLGAWFEI | 0.485 ± 0.29 |
| GLLVELWSLLIIRYNLSAYL | -0.841 ± 0.48 |
| GLMRVRYESHRMKAGSLVSR | 1.89 ± 0.36 |
| GLNCTIV | 1.67 ± 0.32 |
| GLQSVDGLQNTYLGSNAVVD | 0.87 ± 0.26 |
| GLSGFSPQFASATIAQSIP | 1.36 ± 0.23 |
| GLSRFA | -0.582 ± 1.1 |
| GLTLMWALFGSVYGLRSGMG | 0.89 ± 0.28 |
| GLWLRFVCSIYFLMYIVHIN | inactive |

| Substance | amyloid nucleation score |
| --- | --- |
| GLYIEKARQRYPRSQHLIAM | -0.419 ± 0.49 |
| GLYTKT | 0.028 ± 0.14 |
| GMGSVCGIIEYAWTA | 0.627 ± 0.3 |
| GMNQCCPD | -0.455 ± 0.61 |
| GMPQESHSYPLYEMLLGRVG | -0.064 ± 0.3 |
| GMRWSFGVLASRSFCVKWCP | 5.57 ± 0.09 |
| GMVDLGVGSWCMEP | 0.893 ± 0.15 |
| GMVRRQVTLMSSSDRAI | -1.07 ± 1.1 |
| GMYYPREIEFLAFWSTTRGR | -0.956 ± 1 |
| GNFMTECLQARICGPDGEKK | 5.12 ± 0.095 |
| GNKLYFCSFAWLEVFKFKDL | 1.86 ± 0.082 |
| GNLDRYRYLETDKSGAMLGV | 4.3 ± 0.064 |
| GNNNMRPIALCTLSMGGRTF | -0.575 ± 0.49 |
| GNRDF | inactive |
| GNTGSGSDSKLYLAMP | -0.076 ± 0.79 |
| GNVFEHIQSMIRDSFEEHSG | 0.889 ± 0.2 |
| GNVRVECANLYRAVLPDMGH | -0.167 ± 0.63 |
| GNYNLALDLPLTFERFRQSH | -0.736 ± 0.44 |
| GPWGGWSVT | inactive |
| GQAHRFGTHLRISAGVVPPV | 0.01 ± 0.32 |
| GQLSFCGVVYDISRQEPTIF | inactive |
| GQWGETY | 0.476 ± 0.25 |
| GQYVQCNMSCVYVFLQWQRR | 6.262 ± 0.033 |
| GRCPVSRVHGIQRSGDGSVI | -0.383 ± 1.1 |
| GRCYDFCHFYKQGRYSLGWV | -1.06 ± 0.63 |

| Substance | amyloid nucleation score |
| --- | --- |
| GRGADKLTIG | 0.288 ± 0.36 |
| GRMLKFLCWRWVVLMSGAPG | inactive |
| GRTYNVTEFLKSRTRWGSPL | 1.19 ± 0.59 |
| GRVCSRSFL | 2.1 ± 0.085 |
| GRVFEK | 4.93 ± 0.077 |
| GRVMMEC | 0.465 ± 0.33 |
| GRWVST | 1.29 ± 0.43 |
| GRYILFFSRSEFDFKIVQSV | 2.23 ± 0.21 |
| GSCRHHRWGLVRGMFCVSAL | 1.17 ± 0.42 |
| GSDFQFRSSATVLSAVEFLL | -0.227 ± 0.35 |
| GSGIIHTVGLGV | -0.153 ± 0.65 |
| GSLHVNGVVHVSDCHVTY | 1.34 ± 0.53 |
| GSLMRTFHILSIAHSTSWCM | 0.381 ± 0.19 |
| GSLYVLAMLSGYVAKPYKIY | -0.072 ± 0.79 |
| GSPAVGEGG | 0.697 ± 0.81 |
| GSQYRVWISS | -0.214 ± 0.55 |
| GSRVWFEIINL | 6.013 ± 0.026 |
| GSSRLKGDGIVLVKCSWRYM | 1.13 ± 0.38 |
| GSWHDWHRCRSLRYDQTNTS | -0.185 ± 0.39 |
| GTCCARAIGRYGYFNCRHRM | -0.017 ± 0.34 |
| GTCFQTINMGGCLIGGPG | 2.69 ± 0.14 |
| GTFQSYHDTPEECSFRGKSV | -0.114 ± 1.1 |
| GTGLNKHNNSC | 0.36 ± 0.19 |
| GTILPCNWNNLLYWVVGENA | 0.438 ± 0.25 |
| GTLPA | -0.747 ± 0.48 |

| Substance | amyloid nucleation score |
| --- | --- |
| GTMPNGCKS | 0.541 ± 0.74 |
| GTPDYGCSSNVYCD | inactive |
| GTRYSLCTRCG | 0.766 ± 0.5 |
| GVASNGKGFNTFMCAHCY | -0.225 ± 0.41 |
| GVDFTWDRGCIGGRGCSSRY | 5.956 ± 0.054 |
| GVFYDKYRGSVWSEDCKLWT | inactive |
| GVGVGLYKFLTPCFYGEDDE | 0.594 ± 0.57 |
| GVKWSVSFKNWHYWKSMSVV | 1.26 ± 0.66 |
| GVMRSCCEIWTFSIVFRMYT | 0.604 ± 0.31 |
| GVPCRWTVPNANGSSVWSLR | 0.776 ± 0.3 |
| GVSASQSTMLNCDNVTEDVS | 0.753 ± 0.22 |
| GVSGIEVVFYMLSKWGKHER | 4.13 ± 0.054 |
| GVSIS | -0.116 ± 0.76 |
| GVSLLVSTSHGFVREPQVTS | 0.526 ± 0.66 |
| GVVGSFPRPTSSRGRLDYCN | -0.169 ± 0.55 |
| GVVHKDELRGLKVRESSEMG | 0.271 ± 0.48 |
| GVWICFRSAMNSIKACFNNR | 5.395 ± 0.04 |
| GWEYYSCGENWSLSPLSGYN | -0.969 ± 0.34 |
| GWFKESVFLGFWVRISNSQV | -1.75 ± 1.1 |
| GWQWRWLHYRSVRINEEMVS | 0.342 ± 0.34 |
| GWWVCWVL | -1.07 ± 1.1 |
| GYCPLGAPCAGM | 1.23 ± 0.2 |
| GYCSDGWFAECTEWEAPVSR | 0.343 ± 0.64 |
| GYHDRLSPSQTLPPTRNVLC | 0.312 ± 0.8 |
| GYLVRM | -0.186 ± 0.3 |

| Substance | amyloid nucleation score |
| --- | --- |
| GYLVTLWD | 1.03 ± 0.49 |
| GYLYN | -1.32 ± 1.1 |
| GYQRNYSFAVSMEARSVVPG | 4.12 ± 0.058 |
| GYSDYVSYVKGC | 0.182 ± 0.8 |
| GYTIPLYQYKNWGLE | -0.515 ± 1 |
| GYTVCRLGCRFVMSLWNILV | -0.221 ± 1.1 |
| GYWEAFFQLGASPYAGRSRG | -0.13 ± 0.76 |
| HAAGSLHMDYLV | 0.122 ± 1.1 |
| HAILPRCTFHSPMVYALYFT | 0.58 ± 0.65 |
| HATSMCNWAVFIECFFFGKL | 5.39 ± 0.065 |
| HCLVIFNEIYRL | 7.137 ± 0.071 |
| HCMLEYRMIVCVLVYAGYNM | 0.448 ± 0.47 |
| HCRKQIMMGDFKIQGNRGVG | 0.448 ± 0.66 |
| HDDRFSCECYSSDSPESQGL | -0.105 ± 1.1 |
| HDVSVLYEPTAAGWNRLLQT | 0.262 ± 0.54 |
| HDYRVTYDVF | -1.24 ± 1.1 |
| HEEVLLHGLVCKLHRMKR | 0.474 ± 0.26 |
| HEYVAALGWMAEGLSKFLKR | 0.579 ± 0.8 |
| HFIFVAYRWVSNNAELDLNF | -0.724 ± 0.63 |
| HFSVMCTTRSKRLSIKPEWR | 4.41 ± 0.097 |
| HFVNMHH | -0.213 ± 0.76 |
| HGCLYFRFLNALSSFGGYRA | -1.7 ± 1 |
| HGETTTGILIELFVIWYVNS | inactive |
| HGGPS | -0.571 ± 0.38 |
| HGLYCYPGYSDQCVTFVHGY | inactive |

| Substance | amyloid nucleation score |
| --- | --- |
| HIGCYAPASISPLLNGEH | 0.458 ± 0.8 |
| HIICSRHSNEAKLRMKSKAI | -1.03 ± 0.61 |
| HIVVTKTWAGQRHVQFIM | 1.07 ± 0.26 |
| HKGCIIVWKTKRGLCRSARC | -0.384 ± 0.79 |
| HKGYCVRIIT | -0.335 ± 0.26 |
| HKKCSRKKFPAPRPSRTNTS | -0.605 ± 0.48 |
| HKRCVITLLWADL | 0.344 ± 0.41 |
| HKVFISLLCWEKMQKGLTQ | -0.295 ± 0.55 |
| HLCGGHGLVFFWGFVTMKCG | 0.369 ± 0.8 |
| HLESAWSRVSTDRCTNTWTV | 0.506 ± 0.45 |
| HLFPAGRSKTHAVFWFQGKG | 0.412 ± 0.37 |
| HLFTSCYYYMPLYLLSQRQY | 6.095 ± 0.044 |
| HLGRG | 0.126 ± 0.45 |
| HLLLEKDPSVWLWPKNRPGS | 3.35 ± 0.088 |
| HLLQRLSRGHMSALKTRLSW | 0.123 ± 1 |
| HLMRLHY | -1.78 ± 1.1 |
| HLNNCALGTDLILNALDVS | -0.426 ± 0.54 |
| HLPVSLFYRDS | 0.165 ± 0.41 |
| HLRQWDEYLETGCVN | 0.32 ± 0.33 |
| HLSCKVIENGLWTSFCFKQE | -1.04 ± 0.54 |
| HLSRFKWKHLFLNTVLTFAV | inactive |
| HLSRPGDAYTVMFT | 5.845 ± 0.036 |
| HLVIGFHYSCHGFFLRSFGH | inactive |
| HLVMCMARVGTTVNLMSHQT | 6.304 ± 0.057 |
| HMCHTVLHVSAGY | 0.246 ± 0.8 |

| Substance | amyloid nucleation score |
| --- | --- |
| HMDHARLEVLTVILLGVWGF | 5.11 ± 0.089 |
| HMLAPCFNM | -1.58 ± 0.78 |
| HMMHSWAFL | 3.81 ± 0.047 |
| HNLFNHIADNQGRGIEEKLT | -0.003 ± 1.1 |
| HNNFIFYFLLNLMICVHYGQ | 6.066 ± 0.036 |
| HNNGRSFYEKAMVDLGGAWL | 0.263 ± 0.64 |
| HNRISQRRLRLGLRGHWSRK | 0.691 ± 0.53 |
| HNSLMRMVWLNKHPK | -0.095 ± 0.8 |
| HNSMSWFR | 4.45 ± 0.058 |
| HNTAMGLELVPQKKNGVK | -0.06 ± 1 |
| HQMQACLVLG | 5.736 ± 0.053 |
| HQMRFPGSPMATVGSLRTCR | -0.528 ± 0.42 |
| HREKAGSPSCREI | -0.347 ± 1 |
| HRRVCLDAYTFTFLNMVLAW | -0.187 ± 0.65 |
| HRSYCGFICASVLSAGPVHR | -0.31 ± 1.1 |
| HRTLMIVKLCKRSGPFIL | -1.22 ± 0.42 |
| HRYISNISKYESKNWRVPVG | inactive |
| HSKTYLKGRLCNSLVWSYES | 0.712 ± 0.47 |
| HSLFSIAWFVAQYMNFGPDN | 3.1 ± 0.18 |
| HSLLLRWNGYSM | 4.92 ± 0.1 |
| HSLSFLMNSFMRYRSCLVVA | -0.119 ± 0.26 |
| HSLVCDN | -0.122 ± 0.39 |
